Assay: soluble on expression in E. coli; label from the status in PepcDB or PDB records

Sequence | soluble on expression in E. coli
MNVCRLYGEELQKSQSNTFEDYFNRSEVTYRDGGEERTLSVLYLRHFEAALLDWLPYESDPLFTANGRDIHLRDIIALVCLWKNPAYRQRKRVYIHDEEELRRYFAEVDAKTLQALVSEWAETGECRLPERSA | not soluble
MSLDRVEVLGVEFVEFTADQTEAEALGSLLGAMGFRAVASHREKAVTLWRQGCDHRGINVVINTEQKGFAHSSYLVHGASAYAIGLKVPDASAAVERARALGAEIFLPESGEGEGAMAAIRGMGGGLIYFVDEIDDVWSREFVAPGDDRQPAATLVAIDHVAQSMKEEQLPSWLLFYTSILDADKLAQVDIVDPAGLVRSQVVENASGTLRLTLNGADNHREGHHHHHH | not soluble
MMNDSFCRIIAGEIQARPEQVDAAVRLLDEGNTVPFIARYRKEITGGLDDTQLRNLETRLSYLRELEERRQAILKSISEQGKLTDDLAKAINATLSKTELEDLYLPYKPKRRTRGQIAIEAGLEPLADLLWSDPSHTPEVAAAQYVYADKGVADTKAALDGARYILMERFAEDAALLAKVRDYLWKNAHLVSTVVSGKEEEGAKFRDYFDHHEPLSTVPSHRALAMFRGRNEGVLQLSLNADPQFDEPPKESYCEQIIMDHLGLRLNNAPADSWRKGVVSWTWRIKVLMHLETELMGTVRERAEDEAINVFARNLHDLLMAAPAGLRATMGLDPGLRTGVKVAVVDATGKLVATDTIYPHTGQAAKAAMTVAALCEKHNVELVAIGNGTASRETERFYLDVQKQFPKVTAQKVIVSEAGASVYSASELAAQEFPDLDVSLRGAVSIARRLQDPLAELVKIDPKSIGVGQYQHDVSQTQLARKLDAVVEDCVNAVGVDLNTASVPLLTRVAGLTRMMAQNIVAWRDENGQFQNRQQLLKVSRLGPKAFEQCAGFLRINHGDNPLDASTVHPEAYPVVERILAATQQALKDLMGNSSELRNLKASDFTDEKFGVPTVTDIIKELEKPGRDPRPEFKTAQFADGVETMNDLQPGMILEGAVTNVTNFGAFVDIGVHQDGLVHISSLSNKFVEDPHTVVKAGDIVKVKVLEVDLQRKRIALTMRLDEQPGETNARRGGGNERPQNNRPAAKPRGREAQPAGNSAMMDALAAAMGKKR | soluble
MSLSLPPPRRVVLTTPTHFDVEYVINPHMSENVGAVNTDVAWQQWKALRAAYTALDHTPVLVNGQSGLPDMVFCANQTLPFYDPASDSKGVVLSRMHSEQRADEVPYYARFFEEEGYAVDTLPEDLDADFEGMGDALWHPGHHLLWGGYGYRTSPEAYEALGDLLDVPIVALRLVDPDYYHLDTCLCPLDARHALVAPEAFDDAGRALIDALFETVIEVPDHEARHQFACNAHCPDGAHVLIQEGCEGTNAQLRNHDFVPVELDTSEFMKSGGSVFCMKQMIWEGHHHHHH | not soluble
MNRISTSSVNSSFSYSAPAEEAQNRVSSAPTNSSPPGTTTAVAQASEGQKKPGAVLSMQAQRLRQLCESSSYQYRQNALLAKSFDAQRLDINTQAGPSNSPHLNALNKLQQRDFKPAAGGLEIPFTPKSLLGGGKRVYQIGSSSRDVQVCPRGAGAALRQEIADKQLMVNHLTDELQDAIDEANQAEIANTSQQLRQARSDLAELQRRFAVLGNEDRRINQ | not soluble
YWGPLDVGEAKSLPGMEDPKLVYIPSIAPSNMVLYRGDKYSELDGKILVGALKLTHINVVGINDGKLTESQRLLEKLGERIRDITISPDGYIYFSTDSGKIFRLTEQ | not soluble
MRDQMLPSIILFDGVCNFCNYWVQFIIKRDPQATFQFASLQSEVGQELLEKHSIDRSTDSVVLIMEGQAFVCSDAVLKIVAQLDSPIRWLKWAVIFPRFLRDFIYRIVARNRYKWFGKRDECQIPTKEQRSRFLLEHHHHHH | soluble
GSDHVDLREHVIDVPPQEVICKDNVVVTVDAVVYYQVIDPVKAVYNVSDFLMAIVKLAQTNLRAIIGEMELDETLSGRDIINARLREELDKITDRWGVKITRVEIQRIDPPKD | soluble
MLNLSRLSRKLLGWLGRPLSAAHSGEVRQRGPQTHVIILDGTMSTLEPGRETHAGQTYRLMCEMGARVSVFYEAGVQWTSWRTTPDVMMGRGLNRQIRRAYGYLASRYRPGDRIFLIGYSRGAYAVRSLAGVIDMVGLLKAEHATVRNIRQAYRHYECDVQGPHAQVFRDLYCHRDVMIEMVGVWDTVKALGLRLPVLWRLSEQRHAFHSHHLGRSVRHGYHALALNETRNVFEPILWDCKPEFRGHVEQVWFRGTHGDVGGQLGGDERARPLANLSLVWMLERAEHLGLPLPKDWHARFPTDPNAPSVGTWSGWGKIFLLRSARTVGRDPSERLHESVIGDTLPEGLPAPYLRSRSFGLEHHHHHH | soluble
MAEVAPNSTLYINNLNEKIKIDELRKSLVAVFKQFGEIVSVMCFRTLKMRGQAHVIFKELPAASAAREALNGFPFYEKPMRIQFAREDSDVVAQEKGTYIKREPKYLSEKILKKPKSRKKENGGDGPAPPNKILFCTNLPDSATAEMLEIMFNQFAGLKDIRMVPNRPGIAFVEFDTDSLAIPARTTLNNFKISAEHTMRVDYAKK | soluble
GPLGSMPGPAAGSRARVYAEVNSLRSREYWDYEAHVPSWGNQDDYQLVRKLGRGKYSEVFEAINITNNERVVVKILKPVKKKKIKREVKILENLRGGTNIIKLIDTVKDPVSKTPALVFEYINNTDFKQLYQILTDFDIRFYMYELLKALDYCHSKGIMHRDVKPHNVMIDHQQKKLRLIDWGLAEFYHPAQEYNVRVASRYFKGPELLVDYQMYDYSLDMWSLGCMLASMIFRREPFFHGQDNYDQLVRIAKVLGTEELYGYLKKYHIDLDPHFNDILGQHSRKRWENFIHSENRHLVSPEALDLLDKLLRYDHQQRLTAKEAMEHPYFYPVVKEQSQ | soluble
MSLDDAKLTASKEAKRIVIQSIQRVATETAIENSVTVFHIESDEIKGRIIGREGRNIRALEAATGVEIVVDDTPEAIVLSAFDPVRREIARLALHQLVTDGRIHPARIEEVVSKVRKQVEEEIIETGKRTTIDLGIHGLHPELIRIIGKMKYRSSYGQNLLQHARETANLCAVMASELGLNPKKAKRAGLLHDIGKVPDEEPELPHALLGMKLAEKYKEKPDICNAIGAHHDETEMTSLLAPIVQVCDAISGARPGARREIVEAYIKRLNDLEQLAMAYPGVTKTYAIQAGRELRVIVGADKIDDKQTESLSGEIAKKIQDEMTYPGQVKITVIRETRAVSFAKEGHHHHHH | not soluble
PSGFPQNLHVTGLTTSTTELAWDPPVLAERNGRIISYTVVFRDINSQQELQNITTDTRFTLTGLKPDTTYDIKVRAWTSKGSGPLSPSIQSRTMPV | soluble
MAHSAAAVPLGALEQGCPIRVEHDRRRRQFTVRLNGCHDRAVLLYEYVGKRIVDLQHTEVPDAYSGRGIAKHLAKAALDFVVEEDLKAHLTCWYIQKYVKENPLPQYLERLQP | not soluble
EKDKYALALKDKGNQFFRNKKYDDAIKYYNWALELKEDPVFYSNLSACYVSVGDLKKVVEMSTKALELKPDYSKVLLRRASANEGLGKFADAMFDLSVLSLNGDFNDASIEPMLERNLNKQAMSKLKEKFGDIDTATATPTELSTQPAKERKDKQENLPSVTSMASFFGIFKPELTFANYDESNEADKELMNGLSNLYKRSPESYDKADESFTKAARLFEEQLDKNNEDEKLKEKLAISLEHTGIFKFLKNDPLGAHEDIKKAIELFPRVNSYIYMALIMADRNDSTEYYNYFDKALKLDSNNSSVYYHRGQMNFILQNYDQAGKDFDKAKELDPENIFPYIQLACLAYRENKFDDCETLFSEAKRKFPEAPEVPNFFAEILTDKNDFDKALKQYDLAIELENKLDGIYVGIAPLVGKATLLTRNPTVENFIEATNLLEKASKLDPRSEQAKIGLAQMKLQQEDIDEAITLFEESADLARTMEEKLQAITFAEAAKVQQRIRSDPVLAKKIQET | soluble
MGSDKIHHHHHHMNQKNILTWGDVAYASRIATGGSKQEWEALELIWQAWEIIIYTGLATYSNKRELLLVVIRFFAIVSFYLEFFNDYYWEYYINNYSREWLKGIHIIPDYNEYIIDCVNGLCCPILPKSEPNNLLLYFVENALQQVMQVPMDSLNSDSMIFKSVWEISHQQFQLDGDIYELQRREAELISESIFLDKIINLAEIHENYNQNNEFIRDEAAIIEIFFDEDNTDLEWMKCTNHIDFQKSQEVIDATNKFIAFFSCYQIKPNFSLKHCSEIIGFNETDLKRWIRTINRKKQIILSGSPGTGKTFIAKHLAEHLIGGSDGFSELLQFHPTYSYEDFIQGIRPQSQDGQLTYPLVPGRFLKFCKEAEYHQGTCVLIIDEINRANLAQVFGELMYLLEYRNREIPLAGGNTFRIPENVRIIGTMNTADRSIANIDHALRRRFAFIELRPNYDVLRRYHQKRGFAVEGLINILQQLNQAIADKNYEIGISFFLTDNLREDMDDIWPMEIEPYLEEYFFNQLAKVDEFRWDKIKDKLWI | not soluble
DFVGGTKMNMPAAQLETSEVADTFKDATGIEPELVQIVGSGDTRILEINSERLSEDQISQARVALFEKYQPVGSQGQPTPDAIGDSTVSESWGSTITQR | not soluble
MAHHHHHHMAPPNGTVCCPEDLKMYSTIQLNQEIEISKNPFPLHEINKKNDIPLCAQEFSDLTDPLYIKKICLEKVPEWNHFTEDNLRVKQILSGLTNQLFEVGLKEETANNYNSIRTRVLFRIYGKHVDELYNTISEFEVYKTMSKYKIAPQLLNTFNGGRIEEWLYGDPLRIDDLKNPTILIGIANVLGKFHTLSRKRHLPEHWDRTPCIFKMMEKWKNQLFKYKNIEKYNCDIHKYIKESDKFIKFMKVYSKSDNLANTIVFCHNDLQENNIINTNKCLRLIDFEYSGFNFLATDIANFFIETSIDYSVSSYPFFEIDKKKYISYENRKLFITAYLSNYLDKSLVVPTPKLIDEILEAVEVQALGAHLLWGFWSIIRGYQTKSYNEFDFFLYAEQRLKMYDDQKEYLISNNI | not soluble
MSLEIDADRFFKLFDSSVQGLRQCRLISAAFELGVFKALEVPLSAGALAEKIGCDPALMPHFCEALHSLGLLDRFEEGISEEKENAQIAVKGTGEAEGKEKPGDEPGDRIKNDGAVYFVSELSATYLPGNSPFSQKHYLAERIRNVERWSRLPQIMRQGPDIVEKGPFFGEVVHCMAENARCGLLQETVRVVMENVDFTNVKKFLDLGGGHGLYSIALTSLNENLQAFVFDLPPVTSETRYFIDKYGASRVDIIPGDFFKDDIGSDYDVIFSSFNPGGKVPSLIPKIAAALKPEGVFITRQVPDESMKSSPLMSLDWNLWTFEDVKKGSSGYSFENSVLFSEYIDMLGNHGLEVFRALDMTDGSRIVFAWKVTEGHHHHHH | not soluble
MTKLVKINYPNIDEDLYYVKLENGLTVYFIKKIGFLEKTAMLTVGFGSLDNKLTVDDESRDAPAGIAHFLEHKLFEDESGGDISLKFTQLGAETNAFTTFNQTSFFFSTASKFQENLELLQYFVLSANITDESVSREKKIIGQEIDMYQDDADYRAYSGILQNLFPKTSLANDIAGSKASIQKITKILLETHHTYFYQPTNMSLFIVGDIDIDETFLAIQRFQTTLSYPDRKRVTVDPLHYYPVIKSSSVDMDVTTAKLVVGFRGYLTLTQHSLLTYRIALKLFLSMLIGWTSKIYHTLYEDGKIDDSFDVDVEIHHNFQFVLISLDTPEPIAMSNYIRQKLATIKISKEFTNEHLNLLKKEMYGDFIQSLDSIEHLTHQFSLYLSDSDKETYFDIPKIIERLTLKDVVTIGKAFFEKADASDFTVFPK | not soluble

From the DeepSol protein solubility set
